This is an account of results in the supplement of paper PMC9233669.

Fewer inactive variants are shown than the library holds.

Data set [1] has as its system biotinyl-Val-oxazolone. Kind of data set: self-aminoacylation, catalytic enhancement (BVO) (fold over background); higher = more active; k-Seq, kA / k0A0; sequences stand for … in GGGAAUGGAUCCACAUCUACGAAUUC…UUCACUGCAGACUUGACGAAGCUG
In short, it runs like this:
(§1)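 Mutagenized RNA pools with a 21-nt variable region (0.43 μM) were reacted with each biotinyl-aminoacyl-oxazolone at 2–1250 μM for 90 minutes at room temperature, in 50 μL HEPES/NaCl/KCl/MgCl2/CaCl2 buffer containing 5% acetonitrile at pH 6.9–7.0. RNA captured on streptavidin was quantified by triplicate qPCR and by Illumina sequencing. The fraction reacted for each sequence was fit to a pseudo-first-order model with bootstrapping, and catalytic enhancement is the median kA divided by the uncatalyzed rate, taken as the low-activity peak of a bimodal Gaussian fit.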

Data set [2] deals with biotinyl-Phe-oxazolone. Kind of data set: self-aminoacylation, catalytic enhancement (BFO) (fold over background); higher = more active; k-Seq, kA / k0A0; sequences stand for … in GGGAAUGGAUCCACAUCUACGAAUUC…UUCACUGCAGACUUGACGAAGCUG
In short, it runs like this: as §1

Data set [3] concerns biotinyl-Ile-oxazolone. Nature of the data set: self-aminoacylation, catalytic enhancement (BIO) (fold over background); higher = more active; k-Seq, kA / k0A0; sequences stand for … in GGGAAUGGAUCCACAUCUACGAAUUC…UUCACUGCAGACUUGACGAAGCUG
In short, it runs like this:
as §1

Data set [4] relates to biotinyl-Met-oxazolone. Kind of data set: self-aminoacylation, catalytic enhancement (BMO) (fold over background); higher = more active; k-Seq, kA / k0A0; sequences stand for … in GGGAAUGGAUCCACAUCUACGAAUUC…UUCACUGCAGACUUGACGAAGCUG
In short, it runs like this:
as §1

In data set [5] the test system is biotinyl-Leu-oxazolone. Nature of the data set: self-aminoacylation, catalytic enhancement (BLO) (fold over background); higher = more active; k-Seq, kA / k0A0; sequences stand for … in GGGAAUGGAUCCACAUCUACGAAUUC…UUCACUGCAGACUUGACGAAGCUG
In short, it runs like this: as §1

The test system of data set [6] is biotinyl-Trp-oxazolone. Nature of the data set: self-aminoacylation, catalytic enhancement (BWO) (fold over background); higher = more active; k-Seq, kA / k0A0; sequences stand for … in GGGAAUGGAUCCACAUCUACGAAUUC…UUCACUGCAGACUUGACGAAGCUG
In short, it runs like this:
as §1

As to “CCUCACUUCAAGCAAUCGCUC [Fam1B.1 aminoacylation ribozyme variant]”, the self-aminoacylation in data set [1] was determined as 1.18; in data set [2], 1.27; in data set [3], 1.16; in data set [4], 1.15; in data set [5] it was 1.36; in data set [6], 0.912.

On to “AAGUGUGCUAAUAGUCUCAAG [Fam3.1 aminoacylation ribozyme variant]”, for which the self-aminoacylation stood at 1.62 in data set [1]; 8.7 in data set [2]; 1.26 in data set [3]; 1.4 in data set [4]; 1.44 in data set [5]; 2.73 in data set [6].

For “AGUACCCUGGUCAGCGAGUGA [Fam2.1 aminoacylation ribozyme variant]”, the self-aminoacylation was determined as 3.45 in data set [1]; 36.4 in data set [2]; 3.51 in data set [3]; 4.42 in data set [4]; 6.63 in data set [5]; 7.2 in data set [6].

As to “CUCCUUCAAACAAUCGGCCUG [Fam1A.1 aminoacylation ribozyme variant]”, the self-aminoacylation in data set [1] worked out at 2.15; in data set [2], 131; in data set [3], 2.04; in data set [4], 2.63; in data set [5], 3.39; in data set [6] it was 61.7.

Turning to “AUUACGCUGGUCAUCGUGUGA [Fam2.1 aminoacylation ribozyme variant]”, the self-aminoacylation in data set [1] is 1.6; in data set [2], 15.4; in data set [3] it was 1.62; in data set [4], 2.48; in data set [5] it was 2.59; in data set [6] it was 3.

As to “AUUACCCUGGUCAUCGUCUGA [Fam2.1 aminoacylation ribozyme variant]”, the self-aminoacylation in data set [1] is 0.817; in data set [2], 0.374; in data set [3] it was 0.88; in data set [4], 0.842; in data set [5], 0.907; in data set [6], 0.531.

Turning to “AUUCACCUAGGUCAUAGGUUG [Fam2.2 aminoacylation ribozyme variant]”, the self-aminoacylation was 0.77 in data set [1]; 0.595 in data set [2]; 0.63 in data set [3]; 0.846 in data set [4]; 0.9 in data set [5]; 0.441 in data set [6].

On to “CAGUUUGCUAUUAGUCGCAAG [Fam3.1 aminoacylation ribozyme variant]”, for which the self-aminoacylation is 1.22 in data set [1]; 1.88 in data set [2]; 1.24 in data set [3]; 1.25 in data set [4]; 1.5 in data set [5]; 1.29 in data set [6].

With “AUACACCUAGGUAAUCGGGUG [Fam2.2 aminoacylation ribozyme variant]”, the self-aminoacylation in data set [1] is 2.18; in data set [2] it was 12.3; in data set [3], 1.93; in data set [4], 2.84; in data set [5] it was 2.07; in data set [6], 3.83.

As to “AUUCACCGAGGUCACCGGGUG [Fam2.2 aminoacylation ribozyme variant]”, the self-aminoacylation in data set [1] stood at 5.88; in data set [2] it was 74.9; in data set [3], 6.91; in data set [4], 9.61; in data set [5], 10.8; in data set [6], 8.69.

For “AGUCCCCUGGUCAUCGAGUGA [Fam2.1 aminoacylation ribozyme variant]”, the self-aminoacylation in data set [1] amounted to 4.13; in data set [2] it was 42.6; in data set [3] it was 3.3; in data set [4] it was 6.67; in data set [5], 6.55; in data set [6], 7.41.

For “AUUACCCUGGUCAUAGAGCGA [Fam2.1 aminoacylation ribozyme variant]”, the self-aminoacylation in data set [1] came out at 1.04; in data set [2] it was 1.37; in data set [3] it was 1.05; in data set [4] it was 1.03; in data set [5] it was 1.04; in data set [6] it was 1.18.

Turning to “AGUACGCUGGUCAUCGAGUGA [Fam2.1 aminoacylation ribozyme variant]”, the self-aminoacylation in data set [1] amounted to 3.21; in data set [2] it was 14.4; in data set [3] it was 3.17; in data set [4], 2.82; in data set [5], 4.19; in data set [6], 5.19.

For the sequence “CAACAAUUCAAGCAAUCGGUC [Fam1B.1 aminoacylation ribozyme variant]”, the self-aminoacylation stood at 0.937 in data set [1]; 1.71 in data set [2]; 1.16 in data set [3]; 1.1 in data set [4]; 1.01 in data set [5]; 1.31 in data set [6].

“AGUAUCCUGGUCAUCGAGUGA [Fam2.1 aminoacylation ribozyme variant]”: the self-aminoacylation in data set [1] was 4; in data set [2], 20.7; in data set [3], 4.12; in data set [4] it was 6.72; in data set [5] it was 7.39; in data set [6], 8.53.

Consider “CUACUUCAAAGAAUCGAUCUG [Fam1A.1 aminoacylation ribozyme variant]”, for which the self-aminoacylation in data set [1] was determined as 0.595; in data set [2], 0.544; in data set [3] it was 0.679; in data set [4] it was 0.454; in data set [5], 0.615; in data set [6], 0.506.

“CCACACUUCCAGCAAUCGGUG [Fam1B.1 aminoacylation ribozyme variant]”: the self-aminoacylation in data set [1] was determined as 3.05; in data set [2], 18.9; in data set [3], 2.74; in data set [4], 3.83; in data set [5], 4.82; in data set [6], 3.13.

As for “AAGUUUGCUAAUAGUGGCUAG [Fam3.1 aminoacylation ribozyme variant]”, the self-aminoacylation in data set [1] was 0.862; in data set [2], 1.52; in data set [3], 0.811; in data set [4], 0.777; in data set [5] it was 0.65; in data set [6], 0.748.

Take “AUUACCCUGCUCGUCGAGUGA [Fam2.1 aminoacylation ribozyme variant]”: the self-aminoacylation in data set [1] was found to be 0.766; in data set [2], 0.752; in data set [3], 0.725; in data set [4] it was 0.533; in data set [5], 0.689; in data set [6], 0.43.

With “AAGUUUUCUGAUAGUCGCAAG [Fam3.1 aminoacylation ribozyme variant]”, the self-aminoacylation in data set [1] came out at 1.38; in data set [2], 2.8; in data set [3], 1.77; in data set [4], 1.56; in data set [5], 1.55; in data set [6], 1.81.

Turning to “CUACUUCAAACAAACGUUCUG [Fam1A.1 aminoacylation ribozyme variant]”, the self-aminoacylation worked out at 0.622 in data set [1]; 0.686 in data set [2]; 0.591 in data set [3]; 0.529 in data set [4]; 0.579 in data set [5]; 0.591 in data set [6].

Consider “AUUGAACUAGGUCAUCGGGUG [Fam2.2 aminoacylation ribozyme variant]”, for which the self-aminoacylation in data set [1] is 3.28; in data set [2] it was 30; in data set [3], 3.36; in data set [4], 4.33; in data set [5], 4.62; in data set [6], 5.03.

Turning to “CUACUUCAAACAAAAGGUCUG [Fam1A.1 aminoacylation ribozyme variant]”, the self-aminoacylation in data set [1] amounted to 0.946; in data set [2], 0.784; in data set [3] it was 0.822; in data set [4], 0.624; in data set [5], 0.618; in data set [6], 0.592.

Regarding “AUUACUCUGGUCAUCGCGUGA [Fam2.1 aminoacylation ribozyme variant]”, the self-aminoacylation worked out at 8.12 in data set [1]; 117 in data set [2]; 8.13 in data set [3]; 16.4 in data set [4]; 17.7 in data set [5]; 18.3 in data set [6].

As to “AAGUUUGCUAAAUGUCGCAAG [Fam3.1 aminoacylation ribozyme variant]”, the self-aminoacylation in data set [1] was determined as 0.837; in data set [2] it was 0.96; in data set [3], 1; in data set [4], 0.876; in data set [5], 1.1; in data set [6], 0.74.
